Data published in CN115057938A (dated 2022).

B1: R1463 (VHH)
VHH: QVQLVESGGGVVQPGGSLRLSCTCSRCTFNWDGMGWFRQAPGKGLEFVATISWSGQEPAYADSVKGRFTISRDNSKNTLYLQMTSLRAEDTAVYYCAAAQYTGASYSILRDQVGYDYWGQGTLVTVSS
notes: also called RX017 VHH-His标签; 对照
B2: R1464 (VHH, not shown: small tags and cut ends)
chain (part 1 of 3): HHHHHHQVQLVESGGGVVQPGGSLRLSCTCSRCTFNWDGMGWFRQAPGKGLEFVATISWSGQEPAYADSVKGRFTISRDNSKNTLYLQMTSLRAEDTAVYYCAAAQYTGASYSILRDQVGYDYWGQGTLVTVSS
chain (part 2 of 3): B1 VHH
chain (part 3 of 3): B1 VHH
notes: also called 人源化多价结合蛋白 R1464; His标签-VHH-Linker-VHH-Linker-VHH
B3: R1475 (VHH, not shown: small tags and cut ends)
VHH 1: B1 VHH
VHH 2: B1 VHH
notes: also called 人源化多价结合蛋白 R1475; VHH-Linker-VHH-His标签

Target: T1, Delta变异株SARS-COV-2 RBD蛋白(Ag101) (SARS-COV-2 Delta变异株, UniProt P0DTC2 319-541)
T1 construct: domain: RBD; also called Delta variant SARS-COV-2 RBD protein
Assay: competition ELISA: Delta RBD coated, blocks ACE2 binding

Row | Binder | IC50
1 | B1 | 18.1 pM
2 | B2 | 4.32 pM
3 | B3 | 3.34 pM
